Results as given in PMC8636100, “Peptibody Based on FGFR1-Binding Peptides From the FGF4 Sequence as a Cancer-Targeting Agent” (Frontiers in Pharmacology, 2021).
No end group written: not given here.

T1: extracellular domain (ECD) of FGFR1 fused to the Fc domain of human IgG1 (UniProt P11362 22-376, HiLyte488 dye (labelled form, used for the membrane overlay of FGFs and the PepSpot assay))
T1 construct: FGFR1 (fibroblast growth factor receptor 1), extracellular domain; Unlabelled in the pull-down (held on Protein A resin) and in SPR (amine-coupled); also called FGFR1-Fc; source: recombinant, produced as described previously (Sokolowska-Wedzina et al., 2014)
T1 sequence (looked up): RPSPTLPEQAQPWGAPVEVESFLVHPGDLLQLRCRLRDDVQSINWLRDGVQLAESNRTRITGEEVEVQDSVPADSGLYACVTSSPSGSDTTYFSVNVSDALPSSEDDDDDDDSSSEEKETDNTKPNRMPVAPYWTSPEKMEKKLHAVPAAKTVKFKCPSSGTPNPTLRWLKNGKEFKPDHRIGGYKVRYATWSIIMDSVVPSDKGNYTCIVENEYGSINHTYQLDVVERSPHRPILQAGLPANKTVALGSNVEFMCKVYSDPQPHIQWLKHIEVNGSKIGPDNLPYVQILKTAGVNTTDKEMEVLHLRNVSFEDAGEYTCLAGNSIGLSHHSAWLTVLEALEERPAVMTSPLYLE

B1: peptibodyF4_1 (Fc fusion)
chain: GIALSKNGKTKKGNRVSPTMKVTHFLPRL
notes: additional glycine residue as a spacer between the Fc domain and the targeting peptide; peptide F4_1, FGF4 residues 179-206; Peptide fused at the C-terminus of the Fc domain of human IgG1 (vector pLEV113); Labelled with DyLite650 for flow cytometry; not shown: Fc (human IgG1), N-terminal, kept
B2: peptibodyF4_3 (Fc fusion)
chain: GLRRLYCNVGIGFHLQ
notes: additional glycine residue as a spacer between the Fc domain and the targeting peptide; peptide F4_3, FGF4 residues 83-97; Peptide fused at the C-terminus of the Fc domain of human IgG1 (vector pLEV113); not shown: Fc (human IgG1), N-terminal, kept
B3: FGF4 (ligand, UniProt P08620 31-206, looked up)
chain: APTAPNGTLEAELERRWESLVALSLARLPVAAQPKEAAVQSGAGDYLLGIKRLRRLYCNVGIGFHLQALPDGRIGGAHADTRDSLLELSPVERGVVSIFGVASRFFVAMSSKGKLYGSPFFTDECTFKEILLPNNYNAYESYKYPGMFIALSKNGKTKKGNRVSPTMKVTHFLPRL
notes: FGF4; Denatured by SDS-PAGE and held on PVDF in the overlay; native analyte in SPR; also called recombinant FGF4; fibroblast growth factor 4; source: recombinant, provided by Marta Minkiewicz and Martyna Sochacka from Protein Engineering Group
B4: PepSpot peptide no. 10 of FGF4 (peptide)
peptide: LRRLYCNVGIGFHLQ
modifications: also: covalently bound to cellulose-β-alanine membrane
notes: also called peptide F4_3; 4_3; source: synthetic peptide on cellulose membrane (PepSpot, JPT, Berlin)
B5: PepSpot peptide no. 20 of FGF4 (peptide)
peptide: KNGKTKKGNRVSPTM
modifications: also: covalently bound to cellulose-β-alanine membrane
notes: source: synthetic peptide on cellulose membrane (PepSpot, JPT, Berlin)
B6: PepSpot peptide no. 21 of FGF4 (peptide)
peptide: RVSPTMKVTHFLPRL
modifications: also: covalently bound to cellulose-β-alanine membrane
notes: also called peptide 21; source: synthetic peptide on cellulose membrane (PepSpot, JPT, Berlin)
B7: PepSpot peptide no. 19 of FGF4 (peptide)
peptide: KYPGMFIALSKNGKT
modifications: also: covalently bound to cellulose-β-alanine membrane
notes: also called peptide 19; source: synthetic peptide on cellulose membrane (PepSpot, JPT, Berlin)
B8: PepSpot peptide no. 15 of FGF4 (peptide)
peptide: SRFFVAMSSKGKLYG
modifications: also: covalently bound to cellulose-β-alanine membrane
notes: also called peptide 15; source: synthetic peptide on cellulose membrane (PepSpot, JPT, Berlin)
B9: chymotryptic peptide of FGF4, region 179–206 (peptide)
peptide: IALSKNGKTKKGNRVSPTMKVTHFLPRL
notes: FGF4 residues 179-206; also called peptide F4_1; 4_1; source: digest of recombinant FGF4 with immobilized bovine chymotrypsin
B10: chymotryptic peptide of FGF4, region 136–150 (peptide)
peptide: FVAMSSKGKLYGSPF
notes: FGF4 residues 136-150; also called peptide F4_2; 4_2; source: digest of recombinant FGF4 with immobilized bovine chymotrypsin

target: T1, extracellular domain (ECD) of FGFR1 …; assay: SPR; Biacore 3000, 25°C, PBS with 0.05% Tween20, 0.1% BSA, 0.02% NaN3, pH 7.4; FGFR1 ECD-Fc amine-coupled on CM5 at 8800 RU; peptibodies 0.15-4.8 μM or FGF4 75-600 nM injected at 30 μl/min; steady-state affinity analysis for the peptibodies; conditions: both partners purified

Kd [nM]	Binder
2990	B1
1090	B2
65.7	B3

target: T1, extracellular domain (ECD) of FGFR1 …; assay: peptide or protein array; PepSpot: 15-residue peptides spanning FGF4 covalently bound to a cellulose membrane; blocked with 3% BSA in TBS-T; probed with HiLyte488-labelled FGFR1-Fc or Fc domain (0.1 µg/ml in blocking buffer) overnight at 4°C; conditions: both partners purified

binding result	Binder
binds	B4
binds	B5
binds	B6
binds	B7
binds	B8

target: T1, extracellular domain (ECD) of FGFR1 …; assay: affinity purification with mass spectrometry; chymotryptic peptides of FGF4 incubated 1 h at 4°C with ECD_FGFR1-Fc or, in parallel, Fc domain immobilized on rProtein A Fast Flow resin; washed (0.1 M NaCl, phosphate); eluted with 0.1 M sodium citrate pH 3.5; peptides identified by MS; conditions: both partners purified

binding result	Binder
binds	B9
binds	B10
